Measured values from patent US20250283129A1, “PROCESS” (Sun Pharmaceutical Industries Australia Pty Limited, priority 2021, published 2025).

Key:
thebaine = assay: Whole cell biotransformation of thebaine to oripavine by E. coli cells expressing CODM variants; type: cell-based
codeine = assay: Whole cell biotransformation of codeine to morphine by E. coli cells expressing CODM variants; type: cell-based

B1: 15K+M360I: codeine 3-O-demethylase with amino acid substitutions I5K and M360I (protein, listed as Papaver somniferum)
chain: METPKLIKLGNGLSIPSVQELAKLTLAEIPSRYTCTGESPLNNIGASVTDDETVPVIDLQNLLSPEPVVGKLELDKLHSACKEWGFFQLVNHGVDALLMDNIKSEIKGFFNLPMNEKTKYGQQDGDFEGFGQPYIESEDQRLDWTEVFSMLSLPLHLRKPHLFPELPLPFRETLESYLSKMKKLSTVVFEMLEKSLQLVEIKGMTDLFEDGLQTMRMNYYPPCPRPELVLGLTSHSDFSGLTILLQLNEVEGLQIRKEERWISIKPLPDAFIVNVGDILEIMTNGIYRSVEHRAVVNSTKERLSIATFHDSKLESEIGPISSLVTPETPALFKRGRYEDILKENLSRKLDGKSFLDYMRI
increase in oripavine yield relative to the WT CODM strain (thebaine; Example 4, oripavine measured after 2 hours): 2.76 × | speed of biotransformation with thebaine as substrate (in words) (thebaine; time course over twenty-four hours): performed the fastest biotransformation | yield of thebaine to oripavine (thebaine; time course, after ~five hours): ~95% | increase in morphine yield relative to the WT CODM strain (codeine; Example 4, morphine measured after 15 minutes): 2.3 × | speed of biotransformation with codeine as substrate (in words) (codeine; time course over two hours): faster than the WT CODM control | yield of morphine (codeine; time course, after one hour): ~94%
